Data from patent publication EP0359745B1, “GROWTH FACTOR RECEPTOR” (IMPERIAL CANCER RESEARCH TECHNOLOGY LIMITED, priority 1987, dated 1988).
Non-standard residues stand in square brackets, D forms with d. Residues, ends and D or L forms follow the SMILES beside them. No end group written: not given here.

Key:
Swiss 3T3 cells [1] = settings: statement in words, earlier work (reference 13); cited from earlier work
GRP receptor [2] = molecular target: T1, GRP receptor (Mus musculus, UniProt P21729); settings: statement in words, earlier work (reference 13); cited from earlier work
T1 construct: Confluent and quiescent cultures of Swiss 3T3 cells were incubated at 15°C; endogenous in cells; host or cells: Swiss 3T3 cells (mouse fibroblasts)
T1 sequence (P21729 whole entry): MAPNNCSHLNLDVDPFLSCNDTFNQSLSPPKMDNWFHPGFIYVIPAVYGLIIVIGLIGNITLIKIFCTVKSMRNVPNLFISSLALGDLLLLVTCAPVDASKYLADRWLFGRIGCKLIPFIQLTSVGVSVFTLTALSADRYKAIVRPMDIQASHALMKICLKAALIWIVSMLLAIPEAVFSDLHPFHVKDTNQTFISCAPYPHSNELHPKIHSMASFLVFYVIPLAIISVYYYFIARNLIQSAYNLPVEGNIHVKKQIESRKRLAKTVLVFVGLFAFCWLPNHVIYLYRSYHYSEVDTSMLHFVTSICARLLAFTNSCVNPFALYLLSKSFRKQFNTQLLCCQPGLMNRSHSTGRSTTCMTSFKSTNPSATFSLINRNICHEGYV

Mr 75000-85000 protein = Mr 75000-85000 protein (Mus musculus, UniProt P21729); test: ¹²⁵I-GRP affinity labelling (EGS cross-linking) of the Mr 75000-85000 protein in Swiss 3T3 cells, SDS-PAGE and scanning densitometry; assay type: binding; design: endogenous in cells; host or cells: Swiss 3T3 cells (mouse fibroblasts); settings: for cross-linking of ¹²⁵I-GRP / level of the Mr 75000-85000 protein (in words): summary of Table 1, saturating concentrations of the other mitogens; for Mr 75000-85000 protein % of control: ¹²⁵I-GRP (0.5 nM), 15°C, 2.5 h, 6 mM EGS, additions: GRP 360 nM, GRP (14-27) 30 nM, bombesin 30 nM, litorin 92 nM, neuromedin B 220 nM, [D-Arg¹,D-Pro²,D-Trp^7,9,Leu¹¹] substance P 100 »M, GRP (1-16) 3230 nM, PDGF 5 nM, EGF 83 nM, vasopressin 1000 nM, insulin 1 »g/ml, phorbol 12,13 dibutyrate 2000 nM, substance P 740 nM, substance K 880 nM, somatostatin 610 nM, neurotensin 600 nM
Sequence of Mr 75000-85000 protein (P21729 whole entry): as above
Description: After 2.5 h the cells were washed three times at 15°C with phosphate buffered saline (PBS) ad then incubated for 15 min at 15°C In 1 ml of binding medium, pH 7.4 In the presence of the appropriate cross-linking agent at the concentration indicated. The cross-linking agents (EGS, DSS, DSP and BSCOES) were dissolved in dimethyl sulphoxide immediately prior to use and were added to medium to give a final concentration of dimethylsulphoxide of 1-2%. The cultures were rapidly rinsed twice with PBS at 4°C and solubilized in 0.1ml of 2 x sample buffer 0.2 M Tris-HCl, pH 6.8, 10% (w/v) glycerol, 6% sodium dodecyl sulphate (SDS) (w/v) 4% β-mercaptoethanol (v/v) and 2 mM ethylenediaminetetraacetic acid. Samples were immediately heated at 100°C for 3-5 min and analysed by either one or two-dimensional gel electrophoresis.
Slab gel electrophoresis was performed using 7.5% acrylamide in the separating gel ad 5% in the stacking gel, ad 0.1% SDS (31). After electrophoresis gels were stained, destained and dried down onto paper for autoradiography with Fuji X-ray film (Fuji Photo Film Co. Ltd. Japan). Dried gels were exposed to film for 4-8 days. Two-dimensional gel electrophoresis was performed as described by O'Farrell (32) using isoelectric focusing in the 1st dimension and SDS-polyacrylamide gel electrophoresis (SDS-PAGE) (8% polyacrylamide) in the second dimension. The samples prepared for isoelectric focusing containing 1.4% LKB ampholytes, pH 5-7, plus 0.6% LKD ampholytes, pH 3.5-10, 6M urea, and 2% Nonidet P-40. The Mr 75000-85000 band from autoradiograms was scanned using a Joyce-Loebl double beam densitometer and the areas under specific peaks were measured with a Hewlett-Packard digitizer.
After this time some cells were washed four times with cold (4°C) PBS supplemented with 1 mg/ml BSA, solubilized and total cell associated radioactivity was then determined in a gamma counter. […] The cells were then solubilized and samples were analyzed by SDS-PAGE. After electrophoresis, gels were dried, exposed to film and scanned as described in Materials and Methods. The areas under the individual peaks for the Mr 75000-85000 protein are shown as a function of the concentration of the unlabelled peptide and are expressed as a percentage of the control. […] The level of the Mr 75000-85000 protein expressed in arbitrary units is shown as a function of the concentration of the labelled ligand. Inset: autoradiogram of the gel used for scanning; the Mr 75000-85000 and 160,000 bands are indicated by arrows. All other experimental details were as described in Materials and Methods.
(§1) Figure 4. […] Values are expressed as percentage of the specific binding obtained in the absence of antagonists. […] Each point represents the mean of 3 determinations. […] Specific binding (B) is expressed in pmol/10⁶ cells and is shown in a double-reciprocal plot. Each point represents the mean of duplicate determinations. […] After 2 hours, the cultures were washed twice with binding medium then incubated in 1 ml containing 6 mM ethylene glycol bis (succinimidylsuccinate) (EGS) at pH 7.4 for 15 minutes at 15°C. The cultures were then washed twice with cold phosphate-buffered saline and solubilised in 0.1 ml of 2x sample buffer, then immediately heated at 100°C for 5 minutes and electrophoresed on a 10% polyacrylamide gel.
After the incubation period cultures were treated with 6 mM EGS as described in Materials and Methods. Each value is expressed as a percentage of the level of the Mr 75000-85000 protein obtained with no additons (-). Other experimental details are as described in Materials and Methods.

GRP receptor [3] = molecular target: T1, GRP receptor; test: specific [¹²⁵I]GRP binding to intact Swiss 3T3 cells; settings: read-out: Half-maximal inhibition of binding
Description: (§2) Cell culture procedure (33), assays of DNA synthesis by ³H-thymidine incorporation (34) ad ¹²⁵I-GRP binding to intact cells (13) were performed as described previously.
as §1

Swiss 3T3 cells [4] = test: GRP-induced DNA synthesis ([³H]thymidine incorporation) in Swiss 3T3 cells; assay type: cell-based, mouse
Description: as §2
Figure 3. Inhibition of GRP-induced DNA synthesis by [DPro²]spantide (A) and [DPhe⁵]spantide (D). […] After 40 hours DNA synthesis was estimated by [³H]thymidine incorporation into acid-precipitable material. […] Each point represents the mean of duplicate determinations. […] Values are expressed as a percentage of [³H]thymidine incorporation obtained in the absence of antagonists (100% = 8.6 x 10⁵ cpm per dish). Each point represents the mean of 4 determinations.

| Molecule | cross-linking of ¹²⁵I-GRP / level of the Mr 75000-85000 protein (in words) (Mr 75000-85000 protein) | Mr 75000-85000 protein % of control (Mr 75000-85000 protein) | also measured |
| --- | --- | --- | --- |
| CSCC[C@H](NC(=O)[C@H](CC(C)C)NC(=O)CNC(=O)[C@H](Cc1ccccc1)NC(=O)[C@H](Cc1ccccc1)NC(=O)[C@H](CCC(N)=O)NC(=O)[C@H](CCC(N)=O)NC(=O)[C@@H]1CCCN1C(=O)[C@H](CCCCN)NC(=O)[C@@H]1CCCN1C(=O)[C@@H](N)CCCNC(=N)N)C(N)=O [Substance P] | no effect |  | stimulation of DNA synthesis (Swiss 3T3 cells [1]): nor stimulates DNA synthesis; inhibition of GRP binding to Swiss 3T3 cells (GRP receptor [2]): neither inhibits |
| CC(C)C[C@H](NC(=O)[C@H](CC(C)C)NC(=O)[C@@H](Cc1c[nH]c2ccccc12)NC(=O)[C@H](Cc1ccccc1)NC(=O)[C@@H](Cc1c[nH]c2ccccc12)NC(=O)[C@H](CCC(N)=O)NC(=O)[C@@H](Cc1ccccc1)NC(=O)[C@@H]1CCCN1C(=O)[C@H](CCCCN)NC(=O)[C@@H]1CCCN1C(=O)[C@H](N)CCCN=C(N)N)C(N)=O [[DPhe⁵]spantide, D-Arg-Pro-Lys-Pro-D-Phe-Gln-D-Trp-Phe-D-Trp-Leu-Leu-NH₂] (H-[dR]PKP[dF]Q[dW]F[dW]LL-NH2) |  |  | IC50 (GRP receptor [3]): 2.3 µM; IC50 (Mr 75000-85000 protein; read-out: Half-maximal inhibition (affinity-labelling of the Mr 75000-85000 protein)): 5.5 µM |
| GRP (1-16): the 1-16 amino acid fragment of GRP (amino-terminal fragment) (VPLPAGGGTVLTKMYP; Gastrin-releasing peptide; UniProt P07492 24-39, looked up, fragment) | no reduction | 93 % of control | stimulation of DNA synthesis (Swiss 3T3 cells [1]): nor stimulates DNA synthesis; inhibition of GRP binding to Swiss 3T3 cells (GRP receptor [2]): neither inhibits |
| GRP (14-27): the 14-27 amino acid fragment of GRP (MYPRGNHWAVGHLM; ends and bridges not checked; UniProt P07492 37-50, looked up, fragment) |  | 0.4 % of control |  |
| Neurotensin: unrelated factor |  | 93 % of control |  |
| Somatostatin: neuropeptide | no effect | 97 % of control |  |
| Spantide |  |  | antagonist activity (Swiss 3T3 cells [4]; even at 100 uM): no antagonist activity; ability to inhibit mitogenesis stimulated by GRP (Swiss 3T3 cells [4]; substance P antagonists tested at 50 »m, ranking in words): less potent than either A or D |
| Vasopressin: mitogen for Swiss 3T3 cells | not substantially affected | 94 % of control |  |
